Reference: paper PMC7183766

Molecular target: SpirNT(A*)-biotin (on streptavidin beads) (Drosophila melanogaster) (UniProt Q9U1K1)
Assay: TIRF microscopy of actin filaments on protein-coated beads

Chain of SpirNT(A*)-biotin (on streptavidin beads) (Drosophila melanogaster) (Q9U1K1 1-490): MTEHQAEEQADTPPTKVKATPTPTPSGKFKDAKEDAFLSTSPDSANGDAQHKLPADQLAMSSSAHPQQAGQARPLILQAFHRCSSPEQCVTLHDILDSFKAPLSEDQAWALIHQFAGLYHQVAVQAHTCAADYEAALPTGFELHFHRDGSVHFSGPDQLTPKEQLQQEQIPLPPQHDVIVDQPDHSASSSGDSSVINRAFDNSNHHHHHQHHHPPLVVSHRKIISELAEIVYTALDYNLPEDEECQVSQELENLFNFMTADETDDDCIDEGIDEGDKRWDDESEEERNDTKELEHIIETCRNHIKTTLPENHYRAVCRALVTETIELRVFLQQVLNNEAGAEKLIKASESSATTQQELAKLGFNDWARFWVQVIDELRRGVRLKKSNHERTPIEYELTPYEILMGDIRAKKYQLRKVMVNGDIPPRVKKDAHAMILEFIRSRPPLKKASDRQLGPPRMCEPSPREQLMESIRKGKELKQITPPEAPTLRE

koff: 0.011 s⁻¹
Substance: actin filaments (Acanthamoeba castellani actin) (natural protein)
